Laboratory results: paper PMC4021855 (Nature chemical biology, 2013)
Ends that are not written are not given here.

Tests used:
[1] = biological target: human full-length KRS T52D, His-tagged (human, UniProt Q15046 1-597, T52D); test: AlphaScreen or HTRF
[2] = biological target: human full-length KRS WT, His-tagged (human, UniProt Q15046 1-597); test: AlphaScreen or HTRF
Sequence of human full-length KRS WT, His-tagged (Q15046 whole entry): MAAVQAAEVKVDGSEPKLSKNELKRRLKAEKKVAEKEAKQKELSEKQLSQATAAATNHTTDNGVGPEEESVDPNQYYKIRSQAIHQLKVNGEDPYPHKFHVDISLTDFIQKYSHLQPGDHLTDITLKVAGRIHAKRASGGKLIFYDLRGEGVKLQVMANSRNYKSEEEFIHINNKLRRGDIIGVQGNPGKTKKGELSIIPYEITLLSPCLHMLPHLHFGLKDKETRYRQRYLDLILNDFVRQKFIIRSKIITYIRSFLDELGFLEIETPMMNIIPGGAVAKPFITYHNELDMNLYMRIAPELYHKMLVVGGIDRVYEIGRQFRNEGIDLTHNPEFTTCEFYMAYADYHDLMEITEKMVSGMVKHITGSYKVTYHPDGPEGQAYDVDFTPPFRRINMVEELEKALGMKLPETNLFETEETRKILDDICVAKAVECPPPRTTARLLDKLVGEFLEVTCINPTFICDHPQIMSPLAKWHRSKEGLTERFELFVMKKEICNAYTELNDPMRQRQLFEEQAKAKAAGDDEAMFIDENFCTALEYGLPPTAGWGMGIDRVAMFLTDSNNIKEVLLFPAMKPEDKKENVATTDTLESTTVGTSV

Sequence of human full-length KRS T52D, His-tagged (Q15046 whole entry T52D): as the sequence (Q15046 whole entry) above, with T52D counted along it

B1: AIMP2_(1–48)-TRX-Biotin (domain or fragment, human, UniProt Q13155 1-48, looked up)
chain: MPMYQVKPYHGGGAPLRVELPTCMYRLPNVHGRSYGPAPGAGHVQEES-{TRX}
modifications: also: biotin via EZ-Link-NHS-PEG12-Biotin, places not given here
In the case of B1, the Kd [1] is reported as 333 nM and the binding result [2] is reported as “binds”.
